This is an account of results in patent US20260193347A1 (UNIVERSITY OF FLORIDA RESEARCH FOUNDATION, published 2026).

Test [1] has as its target T1, mGlyR (GPR158) co-expressed in HEK293FT cells in the BRET-based GAP assay (human, UniProt Q5T848 24-1215).
T1 sequence: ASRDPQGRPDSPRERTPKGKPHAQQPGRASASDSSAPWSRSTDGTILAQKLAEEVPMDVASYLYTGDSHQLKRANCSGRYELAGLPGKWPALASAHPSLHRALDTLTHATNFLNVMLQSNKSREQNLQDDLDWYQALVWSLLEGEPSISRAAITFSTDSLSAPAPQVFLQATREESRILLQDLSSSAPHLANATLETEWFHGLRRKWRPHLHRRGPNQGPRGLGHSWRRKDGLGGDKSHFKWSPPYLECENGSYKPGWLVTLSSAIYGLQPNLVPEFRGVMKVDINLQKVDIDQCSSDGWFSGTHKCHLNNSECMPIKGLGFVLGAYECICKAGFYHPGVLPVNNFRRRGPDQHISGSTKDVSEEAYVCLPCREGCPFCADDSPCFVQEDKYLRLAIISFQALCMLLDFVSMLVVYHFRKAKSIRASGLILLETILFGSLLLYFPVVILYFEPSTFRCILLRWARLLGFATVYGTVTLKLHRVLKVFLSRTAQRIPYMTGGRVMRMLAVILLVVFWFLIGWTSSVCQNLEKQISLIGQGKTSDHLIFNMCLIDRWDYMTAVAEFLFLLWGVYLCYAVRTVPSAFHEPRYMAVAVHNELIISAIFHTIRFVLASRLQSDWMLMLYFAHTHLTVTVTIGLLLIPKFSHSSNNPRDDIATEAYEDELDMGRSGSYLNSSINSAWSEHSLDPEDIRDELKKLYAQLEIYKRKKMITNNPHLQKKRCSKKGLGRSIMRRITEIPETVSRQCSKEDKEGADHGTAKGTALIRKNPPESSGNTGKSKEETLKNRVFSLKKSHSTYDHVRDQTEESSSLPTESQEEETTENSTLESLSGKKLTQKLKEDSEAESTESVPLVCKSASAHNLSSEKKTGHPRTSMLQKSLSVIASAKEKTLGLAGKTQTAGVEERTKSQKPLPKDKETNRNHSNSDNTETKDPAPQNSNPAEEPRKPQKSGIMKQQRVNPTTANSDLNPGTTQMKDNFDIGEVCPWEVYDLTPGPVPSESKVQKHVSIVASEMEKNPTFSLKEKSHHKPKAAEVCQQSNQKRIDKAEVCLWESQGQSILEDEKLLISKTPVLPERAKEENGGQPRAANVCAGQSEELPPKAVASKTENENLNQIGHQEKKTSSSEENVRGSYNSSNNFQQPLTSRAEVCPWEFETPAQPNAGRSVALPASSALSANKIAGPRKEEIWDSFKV
Briefly: cell-based or functional assay.

The target of test [2] is T2, Venus-tagged full length GPR158 (mGlyR) transiently expressed on HEK293 cells (human, UniProt Q5T848 24-1215).
T2 construct: This is the flow cytometry target; not shown: Venus tag
T2 sequence: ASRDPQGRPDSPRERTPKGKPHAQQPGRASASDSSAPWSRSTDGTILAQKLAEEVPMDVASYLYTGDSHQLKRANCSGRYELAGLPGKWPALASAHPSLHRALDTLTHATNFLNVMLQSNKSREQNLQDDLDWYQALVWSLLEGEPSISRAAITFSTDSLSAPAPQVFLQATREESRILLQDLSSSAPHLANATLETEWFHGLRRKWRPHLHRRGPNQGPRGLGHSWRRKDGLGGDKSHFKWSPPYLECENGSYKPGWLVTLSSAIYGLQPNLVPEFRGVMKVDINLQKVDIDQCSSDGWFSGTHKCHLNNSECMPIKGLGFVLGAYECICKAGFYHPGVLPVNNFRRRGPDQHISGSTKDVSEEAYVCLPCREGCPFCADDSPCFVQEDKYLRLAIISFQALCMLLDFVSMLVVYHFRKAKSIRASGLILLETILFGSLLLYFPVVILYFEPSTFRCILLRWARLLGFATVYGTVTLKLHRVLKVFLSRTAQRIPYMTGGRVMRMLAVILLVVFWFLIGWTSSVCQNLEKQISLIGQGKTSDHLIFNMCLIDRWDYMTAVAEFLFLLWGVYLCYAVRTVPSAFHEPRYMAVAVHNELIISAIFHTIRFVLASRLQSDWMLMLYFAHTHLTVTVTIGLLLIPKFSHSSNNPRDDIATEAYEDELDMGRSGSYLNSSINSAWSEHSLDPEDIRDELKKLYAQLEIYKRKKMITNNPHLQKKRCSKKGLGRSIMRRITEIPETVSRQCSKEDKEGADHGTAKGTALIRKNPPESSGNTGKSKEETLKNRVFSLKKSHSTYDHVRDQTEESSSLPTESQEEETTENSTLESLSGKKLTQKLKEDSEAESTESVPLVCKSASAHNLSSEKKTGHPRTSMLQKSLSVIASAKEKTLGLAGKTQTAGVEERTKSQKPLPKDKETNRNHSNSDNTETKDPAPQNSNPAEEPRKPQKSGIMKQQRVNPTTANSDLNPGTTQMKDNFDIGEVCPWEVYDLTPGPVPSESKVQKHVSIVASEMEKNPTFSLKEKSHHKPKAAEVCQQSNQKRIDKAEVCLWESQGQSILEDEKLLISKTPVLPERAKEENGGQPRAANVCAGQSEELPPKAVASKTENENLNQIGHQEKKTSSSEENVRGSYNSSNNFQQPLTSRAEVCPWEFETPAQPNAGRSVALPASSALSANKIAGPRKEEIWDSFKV
Briefly: flow cytometry titration on GPR158-transfected HEK293 cells. For orientation: A flow cytometer gives signals particle by particle.

The target in test [3] is T2, Venus-tagged full length GPR158 (mGlyR) …. Briefly: flow cytometry, % of positive cells against Log [Nanobody] (M), cells expressing mGlyR, n=3, detection with anti-myc-APC.
Experimental: Error bars are SEM values (n=3 independent experiments).
HEK293FT cells were cultured in 6 well plates at the density of 1.10⁶ per well and transfected with 2 μg of cDNA of mGlyR or empty pcDNA3.1+ in control experiments, using Metafectene Pro. 48 h after transfection, cells were mechanically detached pipetting up-down, washed in PBS supplemented with 0.1% BSA, counted and incubated in PBS-0.1% BSA for 1 h at 4° C. under rotation. […] After 3 washes, cells were analyzed in LSR-II BD flow cytometer. Gating strategy to sort individual cells to debris and doublets was used.

For orientation: EC50 means the concentration that produces a half-maximal response. A higher EC50 goes with a need for much substance.

B1: llama nanobody Nb20 (Nanobody-20), purified recombinant, myc- and His-tagged (VHH, not shown: small tags and cut ends)
VHH: EVQLQESGGGLVQAGGSLRLSCAASGSIGNIYIMGWYRQTPGPQRELVATIRTVRWTKYEDYADSVKGRFTISDDDAKNTVYLQMNSLKPEDTAVYYCNYKDYNAPSDGYWGQGTQVTVSS
notes: Expressed in E. coli BL21 DE3 from pET28a and purified on Ni-IDA; Detected by an anti-myc-APC antibody in flow cytometry; The two passages disagree on where the tags sit; also called clone number 20
Consider B1, for which, in test [1], the “IC50, dose-response of changes in GAP activity (BRET-based GAP assay)” value was around 6 nM. Moreover, the “IC50, inhibition of GAP activity of GPR158 via RGS7/Gβ5 (BRET-based GAP assay)” value in test [1] was 5.77 nM. Moreover, the EC50 in test [2] is around 10 nM; in test [3], 9.9 nM.
